Reference: publication PMC8054193

Target: Strep-SUMO-Bos1

Sequence of Ssa1 (P10591 whole entry): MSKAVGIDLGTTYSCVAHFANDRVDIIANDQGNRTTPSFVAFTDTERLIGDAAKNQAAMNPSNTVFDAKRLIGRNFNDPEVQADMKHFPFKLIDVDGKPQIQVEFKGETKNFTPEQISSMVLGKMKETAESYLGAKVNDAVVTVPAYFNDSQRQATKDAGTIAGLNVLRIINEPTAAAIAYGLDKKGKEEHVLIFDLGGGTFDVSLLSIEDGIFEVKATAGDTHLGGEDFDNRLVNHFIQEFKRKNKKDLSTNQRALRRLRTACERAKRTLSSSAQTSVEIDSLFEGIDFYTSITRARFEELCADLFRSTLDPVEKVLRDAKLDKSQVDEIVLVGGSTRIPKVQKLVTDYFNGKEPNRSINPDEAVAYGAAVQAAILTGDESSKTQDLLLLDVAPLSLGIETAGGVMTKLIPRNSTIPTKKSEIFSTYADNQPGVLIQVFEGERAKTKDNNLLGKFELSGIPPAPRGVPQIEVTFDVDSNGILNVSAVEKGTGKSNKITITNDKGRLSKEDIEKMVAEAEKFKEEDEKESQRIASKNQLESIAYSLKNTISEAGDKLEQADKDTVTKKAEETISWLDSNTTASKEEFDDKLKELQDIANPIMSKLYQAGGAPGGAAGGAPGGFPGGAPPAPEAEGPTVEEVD

**Q.** Which results are given for “Ssa1 (from UniProt P10591 1-642) (natural protein)”?
**A.** K (Soluble) from the Ssa1 concentration dependence of soluble Bos1 (sedimentation of 3 μM Bos1, Western blot, fit to Equation 2), Ssa1 alone: 0.73 µM; K (Soluble) from the Ssa1 concentration dependence of soluble Bos1 (sedimentation of 3 μM Bos1, Western blot, fit to Equation 2), equimolar Ssa1 and Ydj1: 0.014 µM
